Data from the domain aggregation screens of Martell et al. (2025).

Test: soluble fraction after stress (log2 fold change); higher = more stays soluble; pooled small domains, quantitative proteomics
Conditions: stress: 50 degC
How it was run: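 Quantitative proteomics served as the high-throughput read-out for pooled custom libraries of small protein domains. Each was stressed at 50°C. Aggregation propensity is expressed as the base-two log fold change in soluble protein after stress. A higher value means a larger share of the protein remains in solution.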

Row | Sequence | soluble fraction (log2)
1 | HMTSPKSRIVSALLASPSRPEELAMRLGEDILTLMRTLTDFEASGIIQRLPDGRYTPTREYHLGLVDK | 0.0852
2 | HMPIDQAKRKKEIIQNFGIRKIYKFSEIFDLKFGRDNIIVTFLIILDMIKEGVVEINENKEEIEFEYK | -0.166
3 | HMSDRLRPGDMVVVVGKKKRYPVFSAFDIDFVEAGDVGKVLTVKREEVVVGFPKKGEGTFTPSELNIAH | -0.597
4 | HMNGDWISARQEYYIRGLWDLASRAKDEASLQAMLQRIAGVTQIEWISKEKATKVILALRDIAKK | -1.68
5 | HMSKQIEVPDVTDMTVSDAIDVLQDKGFVVSDEQKEVASSEIEEGRVVRTSPAVGSKRKDGTVVTLYVSI | 0.045
6 | HMEFPLSPHQYSVLRLMAQGLSNKQIAERLFLSENTVKGYVQEVLRRLGARNRLEAVMIANRRGWL | -0.112
7 | HMVEIPEFKITTFVNTDNEQIAEFENGFTDKKAEITFNNTKYVFKEKLPDQDGIRTYVYEELHE | 0.117
8 | HMVKNTIHVDLKGEVNKPGVYEVEEGTIVNDLITLANGFTKNAYQDNINLSKKLTDEMVIVVSKKGS | 0.337
9 | HMGLVQQSAQKSDDAAKLMAANNLNAAQSKYQLPDEAEKDFFTFAFERGYAVEDFVDAGLVDKIMADFSA | -0.078
10 | HMNLDVPGIIKRAKQALNLKRDSELAEFLGVSRATVTNWAARNSIDFRLLLDKLGNTVDYNWLLLGKGNPK | -0.221
11 | HMSNTVEDLIDDIGTVTKDSKDKIDAARKAYDGLTEDQKKLVPDSVLKTLTDAEAAYAKLTK | -0.0576
12 | HMSNKYYETILDWFKSQIMSGELKEGDTIPSERELATRFGVSRVPVREALRILEYIGIVSNTADGMTVQKV | -0.879
13 | HMEEPEFEPYVVRLTAIALNVRTGPGTQYPVAMVIRGGGAFTIVAEENGFGLLKSGAGWIMLQHTERV | -0.434
14 | HMSKEIQNILASLPSVDVLLKQIDPIYPHGKAKEATQQVVARLRESVVDGTRKTVIDQKEVIAMIHKQLEE | 0.143
15 | HMADTSLDHLGVLVRHASDVDAWAEFFENRGVTLASQPRTHRDGARSFYVDDPDGNRVQVIYHPPI | -0.498
16 | HMGAQPLIEPLSERELEVLALIAEGLTNAEIGRRLFIATGTVKRHVNTIYGKLDVHGRIEAIARARDLHLI | -0.276
17 | HMNFSRQREIIYEQVRNFPVHPTAEEVYRALKNDNPNLSLGTVYRNLNQLSEAGMLLKIPIADGSDRFDGR | -0.492
18 | HMKYSYAELTKLQEQIAQDRNAPLTVPNALGIGLDERNNVIEITVNIADEAAAKAYYLQKYGDRISLKTTD | 0.117
19 | HMIGDNNELFQKAQLTPREKEVALLLLQGETNSDIAKILYVGLSTVKKHISSIFEKTKVKSRTEFISKVR | -0.803
20 | HMNSNSLSFSKFMQEVEAGRVIEVQIKGNDIQGELSDGSKFKTYSPNYPNLVDKLSENKVSIVATPL | 0.038
21 | HMELSVTDRTRQIRHILKEKGRVEFTSLFEELTKPYVIVTFLSVLEMSKNNELMITQDKTFGSITLEMKG | -0.569
22 | HMAAQDIILKRNAEQIEAIVKEITDTDVKYRKFTNTEGVTYSIRRSEVFSITYENGTMDLFA | 0.0231
23 | HMDSDELEAFRLITSVNGVGPKLGIAILSEFTAEKLTVFIASGDAKALTAASGVGIKLAQRIVLELKDKVG | -0.199
24 | HMNLGLTGDPSVLYSILLQRGDSSRADLQRQTGWSLSKTTLVLNQLLAQKLIVQVGAGRSTQYRVIN | -0.983
25 | HMTIKNHIDEILKKEPFILENIKNGLINISALARQIEPQLSRKVGKKLNVNAIIMTIKRMEIDQLNK | -0.989
26 | HMNGIFEYSDAKKVPSLVEIENAYRRARVNGAEKFAVIINGEYFGYNPQKRGIYKLNDGEYQIL | -0.0706
27 | HMAPLADQIVDLLKEHDGFLPLHDNSSPEDIRATVGTSKKAFKQAIGGLFREKRIVIGPTGIRLIS | -0.378
28 | HMFLTSDEGKIMQLLEDKQRITRKDAQELLGVSQSTAGRILKTLVDNGQITQRGGGRTTRYELIK | 0.184

Row | Sequence | soluble fraction (log2)
29 | HMQVEMVLSQEAHEWLLQRGFIPEYGAREMDRVIAAHLKPLLMREILFGTLKAGGKVRVQVENGALKLQP | -1.44
30 | HMKQESSEDLLNEVIDKVIDSNPDEKNRLLDGELKLVSFFMGQVMKETKGKANPGVINGLIKKKFNI | -0.675
31 | HMPQNVSVPDVTNMTQAEAESKLKEKNLAVGNIIPELSTTVEKDKVTRTNPESGSNVRKNSKVDIYVSQG | 0.0455
32 | HMVTDVDYSTFLSQVEEGKVESVTIEDGEILFKGKDENGEARWYITGEMNDPNLVERLKDKVPSFNAPA | 0.0853
33 | HMNSISDSELKALIKNNYLKFLKRIASDEEIEYHFNQIKNKTILLDELDSIFQNSQEYKDLVEHNNKIQN | -0.0724
34 | HMVTIYQRIMLVLEDKQVSVNALSKLVDMSQTTLNTQLKGERTLSANVVAKVLVAYPDVSAEWLMRGVGTM | 0.362
35 | HMFFFILNKGAKSGGEITHAVLNGSIVSKPAGWDAFHGLVLAKEKLSSEEIQRQMKELGVEMEIVPL | -0.58
36 | HMDHFLRRFQVEGLNLEKLLRLAAEREMDLLQVRRSGRRMTGLVAEKRLPELEELAAQGGWALRLGEY | -0.268
37 | HMEVPNLIGMTDKDLQRTYFQLPIEAAGDGSVVIKQLPEPGEKVKEGSVIRVLLG | 0.171
38 | HMGIFAQTTKWRDIYTVKKKDTIFGIANKYGLSLPELMEANPEMKQEGYMLQKGTTLFIPFASD | -0.483
39 | HMSIQDLMNSKDLSGFKVEMLSNEDIVKYKSMLQSSGFSESQAEQLALQRGLPTSELIKLRTRISDVAVT | 0.0344
40 | HMDLAPLQTVDIAINYAKAAELAAILKSSEGGILSDRGGVTVDERTNTLLIRDTLESIDEARKTI | 0.122
41 | HMGQDLSYYIKIVQNQQPVDPLTGEPKVLDYGEVIRQAQILQMLDTGDLDRDKAIGQLSMKDAL | 0.0152
42 | HMEDLAERLDNLSTMYAKMDPVRAAQVLLESKNKSENIEVLKRLKPKSLGLILENMPPREAYDYVSELQ | 0.0712
43 | HMNVDALVGQRGRVTQTFDPGLRLGRVAVGGDDWRAETTTDQPLREGDLVEVVSVESNTLIVRPIA | -0.0828
44 | HMKIELTDQQKSLVVDEWNKGEANPPSLLQLIRLAYPDQPHLDGRSKEGKAVKAFLATRDINPLA | 0.0239
45 | HMDRSVTAAELRLAAMDLLARREHGSQELEAKLSRRFHKRHYDVELLRSVIEQLTVEGLLSDERFAVS | -0.154
46 | HMALPRYFFRTRENGAVLFKTPVNNHQNRLEMHQIAAINIRNETVKPLGDTVLTDEETELIADWMRERKTV | -0.72
47 | HMSGSLLQTRQRLQALTDLGHYKGDLAAAWGPEAIEALKRAQAALGITVDGKWGPETEDAIQVALQAQT | 0.0305
48 | HMKYTEEIFNILSRGGFISANSVSSTVKRYYDALEEDFTEYYDYYKGIGFYLEAGNGYYLFTR | -3.29
49 | HMGPPLISLDDGLAKGFGVGVGDTLTINILGRRITATIASLREIDWQSLRFDFAVVLSPGVLEGA | 0.0913
50 | HMTNALDMMKTMDSDAYTKYQKISKESSNEDRQLNELKYITNWYAGAVKKNPSMVDDYEKQKEADS | 0.159
51 | HMTSVPGTVVTNANLRGGPGTNYPIVGKAPAGTTVNVVESTADRTWYYLDTGSWIAAFLVKLS | 0.152
52 | HMKHFNDEELDGFAGLKSDDYNEEQVELFRNIFEELHPDEIIEWTESLRRRGIEIPSSLKDEVVMMIN | 0.173
53 | HMENPPISVVIPPSFRGQRIDKALGSLIGDYSRSKIQQWLQSGLVQSAGEPLLPKYTVLGNEQILIAVPS | 0.00382
54 | HMQVPFGFQRNPSTGTLEEKAEEQLIINQVLSLKNSGIGVSEISKRLGELSVSRIYRIINTAKKNAS | -0.366
55 | HMLGDAWSMLILRDAHSGFSRFDQFRKSLGIAPTMLTKRLSVLVDEGLLEKRQYSEHPPREEYVLTQAGQD | 0.0822
